Changes are numbered by the printed parent chain.
Key:
[1] = target: SARS-CoV-2 spike protein N-terminal domain (NTD) (SARS-CoV-2, UniProt P0DTC2 14-305)
[2] = target: SARS-CoV-2 spike protein receptor binding domain (RBD) (SARS-CoV-2, UniProt P0DTC2 319-541)
[3] = target: SARS-CoV-2 spike N-terminal domain (NTD), antigen of Example 10 (SARS-CoV-2, UniProt P0DTC2 14-305)
[4] = target: SARS-CoV-2 spike receptor binding domain (RBD), antigen of Example 10 (SARS-CoV-2, UniProt P0DTC2 319-541)
[5] = target: Receptor binding domain (Neil King, University of Washington) (SARS-CoV-2, UniProt P0DTC2 328-531)
[6] = target: SARS-CoV-2 spike protein trimer, wild type (FIG. 2A sequence) with C-terminal trimerisation domain (SARS-CoV-2, UniProt P0DTC2 14-1213)
[7] = target: SARS-CoV-2 S2 spike domain (Sino Biological) (SARS-CoV-2, UniProt P0DTC2 686-1213)

B1: IMPI-022 (antibody, V domains shown)
VH: EVQLVESGGGLVQPGRSLRLSCAASGFTFDDYAMHWVRQAPGKGLEWVSGITWNSGSIGYADSVKGRFTISRDNAKNSLYLHMNSLRVEDTALYYCAKDLQGDYYYYGVDVWGQGTTVTVSS
VL: AIQLTQSPSSLSASVGDRVTITCRASQGISSALAWYQQKPGKAPKLLLYDASSLVSGVPSRFSGSRSGTDFTLTISSLQPEDFATYYCQQFISYPLTFGGGTRVEIK
With B1 the Kd [1] was 603 nM.

B2: IMPI-027 (antibody, V domains shown)
VH: QVQLQESGPGLVKPSQTLSLTCTVSGGSISSYGYYWNWIRQHPGKGLEWIGYIYYSGSTYYNPSLKSRVTISVDTSKNQLSLRLNSVSAADTAVYYCARDFGGNSNYFDYWGQGTLVTVSS
VL: B1 VL with A25T, L48I, V55E, R66G, I92N, R103K
For B2, the Kd [1] was 2910 nM and the Kd [2] was 6.31 nM.

B3: IMPI-068 (antibody, V domains shown)
VH: QVQLVESGGDVVQPGRSLRLSCAASGFTFSRYGMHWVRQAPGKGLEWVAVISYDGSDKYYADSVKGRFTISRDNSKNTLYLQMNSLRAEDTAVYYCAKQLPLYYYYYGMDVWGQGTTVTVSS
VL: B1 VL with K45N, L48I, V55E, R66G, I92N, S93I, L96H, G100P, R103K, E105D
Work on B3 yielded a Kd [3] of 2570 nM and a Kd [4] of 9.47 nM.

B4: IMPI-024 (antibody, V domains shown)
VH: EVQLVQSGAEVKKPGESLKISCKGSGYSFTSYWIGWVRQMPGKGLEWMGIIYPGDSDTRYSPSFQGQVTISADKSISTAYLQWSSLKASDTAMYYCVRSYNWNYFDYWGQGTLVTVSS
VL: B1 VL with A32G, P40A, L48I, A51V, V55E, R66G, I92L, L96W, G100Q, R103K
B4 was tested, and the Kd [1] was 660 nM and the Kd [2] was 1.16 nM.

B5: IMPI-033 (antibody, V domains shown)
VH: B2 VH with N37S, I71M
VL: B1 VL with K45N, L48I, V55E, R66G, I92N, Y94S, R103K
With B5 the Kd [1] was 1820 nM and the Kd [2] was 3.02 nM.

B6: IMPI-017 (antibody, V domains shown)
VH: EVQLVESGGGLIQPGGSLRLSCAAAGLTVSSNYMNWVRQVPGKGLEWVSVIYSGGSTYYADSVKGRFTISRDNSKNTLYLQMNSLRAEDTAVYYCARDLGTLGMDVWGQGTTVTVSS
VL: DIQLTQSPSFLSASVGDRVTITCWASQGISTYLAWYQQKPGKAPKLLIYAASTLQSGVPSRFSGSGSGTEFTLTISSLQPEDFATYYCQQLNSYLPTFGQGTKVEIK
With B6 the Kd [1] was 1050 nM and the Kd [2] was 2.25 nM.

B7: IMPI-056 (antibody, V domains shown)
VH: B6 VH with A25S, V40A, G44K, Y58F, K64R, Y79F, T90S, T101P, L102Y, M104V
VL: B6 VL with T31S, L95P, P96L, K103R, V104L
Binder B7 has a Kd [3] of 682 nM and a Kd [4] of 1.59 nM.

B8: IMPI-029 (antibody, V domains shown)
VH: B6 VH with A25S, L27V, V40A, Y79F, T90S, T101P, L102Y, M104V
VL: B6 VL with T31S, Q90E, L95P, P96L, K103R, V104L
B8 showed a Kd [5] of less than 1 nM.

B9: IMPI-060 (antibody, V domains shown)
VH: B6 VH with A25S, L27V, N35S, V40A, Y58F, G100S, T101Y, L102Y
VL: B6 VL with T31S, R61K, L95P, P96S, T97S, V104L
With B9 the Kd [4] was 141 nM.

B10: IMPI-029 (antibody, V domains shown)
VH: B6 VH with A25S, L27V, V40A, Y79F, T90S, T101P, L102Y, M104V
VL: B6 VL with T31S, Q90E, L95P, P96L, K103R, V104L
In the case of B10, the Kd [1] is reported as 219 nM and the Kd [2] is reported as 0.446 nM.

B11: IMPI-047 (antibody, V domains shown)
VH: B6 VH with A25S, L27F, V40A, A87T, G100V, T101A, L102Y
VL: B6 VL with T31S, L46V, Q90L, Y94N, L95P, P96L, Q100G
Work on B11 yielded a Kd [1] of 2320 nM and a Kd [2] of 6.65 nM.

B12: IMPI-056 (antibody, V domains shown)
VH: B6 VH with A25S, V40A, G44K, Y58F, K64R, Y79F, T90S, T101P, L102Y, M104V
VL: B6 VL with T31S, L95P, P96L, K103R, V104L
In the case of B12, the Kd [5] is reported as less than 1 nM.

B13: IMPI-006 (antibody, V domains shown)
VH: QLQLQESGPGLVKPSETLSLTCTVSGGSISNSNYYWGWIRQPPGKGLEWIGSIYYSGRTYYNPSLKSRVTISVDTSKNQFSLKLSSVTAADTAVYYCARMGLLWFGEFYGMDVWGQGTTVTVSS
VL: DIQMTQSPSSLSASVGDRVTITCRASQGISSWLAWYQQKPEKAPKSLIYDASSLQRGVPSRFSGSGSGTDFTLTISSLQPEDFASYYCQQYNSYPLTFGGGTRVEIK
Work on B13 yielded a Kd [5] of less than 1 nM.

B14: IMPI-063 (antibody, V domains shown)
VH: EVQLVESGGGVVRPGGSLRLSCAASGFTFDDYGMSWVRQAPGKGLEWVSGIYWNGGSTGYADSVKGRFTISRDNAKNSLYLQMNSLRAEDMALYYCARGVGATDYWGQGTLVTVSS
VL: EIVLTQSPGTLSLSSGERATLACRASESVRGSFLAWYQQKPGQAPRLLIYGASRRATGIPDRFSGSGSGTDFTLTISRLEPEDFAVYYCQQYGNSPMCSFGQGTKLEIK
In the case of B14, the Kd [6] is reported as 2.29 nM, the koff [6] is reported as 0.000939 s⁻¹ and the kon [6] is reported as 411000 M⁻¹ s⁻¹. The Kd [7] was 0.845 nM, the koff [7] was 7.77 s⁻¹ and the kon [7] was 9.19e+09 M⁻¹ s⁻¹.

B15: IMPI-038 (antibody, V domains shown)
VH: QVQLVESGGGVVQPGRSLRLSCAASGFTFSSYGMHWVRQAPGKGLEWVAVISYDGSDKYYADSVKGRFTISRDNSKNTLYLQMNSLRAEDTAVYYCAKTVAGYYYYYYGMDVWGQGTTVTVSS
VL: DIQMTQSPSSVSASVGDRVTVTCRASQDISSWLAWFQQKPGKAPKFLIYDASNLENGVPSRFSGSGSGTDFTLTISSLQPEDFATYYCQQAKSFPWTFGQGTKVEIN
B15 was tested, and the Kd [1] was 475 nM and the Kd [2] was 0.826 nM.

B16: IMPI-067 (antibody, V domains shown)
VH: B15 VH with R16T, S30N, Y32F, D57S, T99D, V100E, A101G, G102D, Y104D, Y105D
VL: EIVLTQSPGSLSLSPGERATLSCRASQSLSSRYLAWYHQKPGQAPRLLIYGASSRATGIPDRFSGSGSGTDFTLTISGLEPEDFAVYYCQQYGNSITFGGGTKVEIK
In the case of B16, the Kd [3] is reported as 84.5 nM.

B17: IMPI-013 (antibody, V domains shown)
VH: EVQLVESGGGLVQPGRSLRLSCAASGFTFDDYAMHWVRQTPGKGLEWVSGISWNSGSIGYADSVKGRFTISRDNAKNSLYLQMNSLRAEDTALYYCTKDLGLGIGFYYGLDVWGQGTTVTVSS
VL: AIQMTQSPSSLSTSVGDRVTITCRASQGIRNDLGWYQLKPGKAPKLLIYDASTLQSGVPSRFSGSGSGTDFTLTISSLEPEDLATYYCLHHYTYPWTFGHGTKVELK
For B17, the Kd [6] was 0.67 nM and the Kd [7] was 0.126 nM.

B18: IMPI-059 (antibody, V domains shown)
VH: EVQLVESGGGLIQPGGSLRLSCAASGFTVSSIYMSWVRQAPGKGLEWVSIIYSRGSTDYADSVKGRFTISRDISKNTLYLQMNSLRAEDTAVYYCARDGTMVRGVHAFDIWGQGTMVTVSS
VL: DIQMTQSPPSLSASIGDRVTITCQASQDISNYLNWYQQKPGKAPKLLIYDASNLETGVPSRFSGSGSGTDFTLTISNLQPEDIVTYYCQQYDNLPSSFGQGTKLEIK
B18 gave a Kd [3] of 1650 nM and a Kd [4] of 2.3 nM.

B19: IMPI-055 (antibody, V domains shown)
VH: QVQLVQSGAEVKKPGASVKVSCKASGYTFTSYDINWVRQATGQGLEWMGWMNPNSGNTGYAQKFQGRVTMTRDTSINTAYMELSSLRSEDTAVYFCARGGRYCSDVTCYSGEPFDYWGQGTLVTVSS
VL: EIMLTQSPDFQSVTPKEKVTITCRASQSIGSSLHWYQQKPDQSPKLLIKFASQSISGVPSRFSGSGSGTDFTLTINSLEAEDAAAYYCHQSSSLPHTFGPGTKVEIK
Work on B19 yielded a Kd [3] of 1360 nM and a Kd [4] of 1.85 nM.

B20: IMPI-055 (antibody, V domains shown)
VH: B19 VH
VL: B19 VL
With B20 the Kd [5] was less than 1 nM.

B21: IMPI-042 (antibody, V domains shown)
VH: EVQLVESGGGLIQPGGSLRLSCAASGLTVSSNYMSWVRQAPGKGLEWVSIIYSGGSTYYADSVKGRFTISRDNSKNTLYLQMNSLRAEDTAVYYCARLGGYYYYGMDVWGQGTTVTVSS
VL: DIQMTQSPSSLSASVGERVTITCQASQDIRNYLNWYQKKPGKAPKLLIYDSSNLETGVPSRFSGGGSGTDFTFTISSLQPEDIATYYCQQYDNLPITFGQGTRLEIK
B21 showed a Kd [1] of 662 nM and a Kd [2] of 1.87 nM.

B22: IMPI-054 (antibody, V domains shown)
VH: B21 VH
VL: B21 VL with G65S
B22 showed a Kd [3] of 602 nM and a Kd [4] of 2.06 nM.
